# Laboratory results: paper PMC11758712
# Tests used:
# [1] = biological target: Abdala (SARS-CoV-2 spike receptor-binding domain vaccine antigen produced in Pichia pastoris) (SARS-CoV-2 (Wuhan-Hu-1)) (UniProt P0DTC2); assay: mass photometry
# [2] = biological target: monomeric ACE2 (a.a 19-611), C-terminally His-tagged (human) (UniProt Q9BYF1); assay: mass photometry
# Sequence of monomeric ACE2 (a.a 19-611), C-terminally His-tagged (human) (Q9BYF1 19-611): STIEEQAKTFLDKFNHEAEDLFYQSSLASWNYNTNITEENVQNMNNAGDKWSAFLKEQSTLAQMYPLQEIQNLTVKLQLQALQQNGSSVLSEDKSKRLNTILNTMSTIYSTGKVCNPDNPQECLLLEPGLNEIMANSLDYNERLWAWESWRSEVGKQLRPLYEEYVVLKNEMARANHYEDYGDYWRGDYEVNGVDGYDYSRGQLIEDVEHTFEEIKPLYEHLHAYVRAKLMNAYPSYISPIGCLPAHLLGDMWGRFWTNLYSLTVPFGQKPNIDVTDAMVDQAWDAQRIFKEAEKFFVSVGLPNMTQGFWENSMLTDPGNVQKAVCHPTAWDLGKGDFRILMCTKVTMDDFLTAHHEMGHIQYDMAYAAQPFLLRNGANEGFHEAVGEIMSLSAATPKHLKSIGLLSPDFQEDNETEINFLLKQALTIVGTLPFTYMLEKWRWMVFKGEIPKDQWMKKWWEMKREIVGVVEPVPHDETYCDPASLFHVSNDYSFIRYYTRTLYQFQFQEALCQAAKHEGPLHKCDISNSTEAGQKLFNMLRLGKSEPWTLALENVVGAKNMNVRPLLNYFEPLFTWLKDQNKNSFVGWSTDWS
substance,measurement,setting,value
Abdala (SARS-CoV-2 spike receptor-binding domain vaccine antigen produced in Pichia pastoris) (from UniProt P0DTC2 319-541) (domain or fragment),percent dimeric species,[1],5.6%
same,stoichiometry N,[1],2
same,Kd,[2],55.5 nM
